Test results from publication PMC3166367.
Each block holds one substance with its values, some of them ahead of it.

Experiments:
[1] = molecular target: dimeric (β15-44)2 fragment (β15-42 with Cys43 and Gly44 added, dimerized through Cys43); assay: ELISA
[2] = molecular target: VE-cad(3) fragment (residues Phe210-Phe325), third domain of the extracellular portion of VE-cadherin; assay: SPR
[3] = molecular target: VE-cadherin (Homo sapiens) (UniProt P33151); assay: SPR; details: cited from earlier work
Sequence of VE-cadherin (Homo sapiens) (P33151 48-599): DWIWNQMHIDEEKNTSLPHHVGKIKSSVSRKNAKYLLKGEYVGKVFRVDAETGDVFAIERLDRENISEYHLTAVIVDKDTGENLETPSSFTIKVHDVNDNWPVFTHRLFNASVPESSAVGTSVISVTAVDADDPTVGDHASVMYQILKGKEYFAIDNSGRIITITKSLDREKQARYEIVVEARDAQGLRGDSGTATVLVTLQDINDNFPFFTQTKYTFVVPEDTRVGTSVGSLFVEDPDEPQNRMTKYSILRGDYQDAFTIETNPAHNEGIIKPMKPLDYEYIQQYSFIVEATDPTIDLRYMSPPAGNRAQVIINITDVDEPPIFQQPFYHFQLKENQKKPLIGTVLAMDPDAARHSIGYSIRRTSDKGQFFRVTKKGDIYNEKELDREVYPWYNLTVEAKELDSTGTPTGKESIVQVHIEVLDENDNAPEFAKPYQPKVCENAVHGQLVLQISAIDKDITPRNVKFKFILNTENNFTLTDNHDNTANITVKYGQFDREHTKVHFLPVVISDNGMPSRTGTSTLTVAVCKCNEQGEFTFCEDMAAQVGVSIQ

Kd [1]: 0.146 µM
Substance: VE-cad(3) fragment (residues Phe210-Phe325), third domain of the extracellular portion of VE-cadherin (domain or fragment)

Kd [2]: 0.715 µM
Substance: dimeric (β15-44)2 fragment (β15-42 with Cys43 and Gly44 added, dimerized through Cys43) (peptide)

Substance: fibrin fragment (β15-66)2 15-66 (from UniProt P02675)
Kd [3]: 0.08 µM
